Reference: publication PMC7968930, “A conserved cell division protein directly regulates FtsZ dynamics in filamentous and unicellular actinobacteria” (eLife, 2021)
Blank lines part the entries; values can stand above or below the molecule they belong to.

Legend:
[1] = tested on: T1, SepH (Streptomyces venezuelae NRRL B-65442), ORF:b45d4985; test: DNase I footprinting; settings: 50 mM HEPES/KOH pH 7.2, 50 mM KCl, 5 mM MgCl2, room temperature, 30 min (EMSA 50 ng probe in 20 uL, 0.5x TBE gel; footprinting 40 uL)
T1 sequence: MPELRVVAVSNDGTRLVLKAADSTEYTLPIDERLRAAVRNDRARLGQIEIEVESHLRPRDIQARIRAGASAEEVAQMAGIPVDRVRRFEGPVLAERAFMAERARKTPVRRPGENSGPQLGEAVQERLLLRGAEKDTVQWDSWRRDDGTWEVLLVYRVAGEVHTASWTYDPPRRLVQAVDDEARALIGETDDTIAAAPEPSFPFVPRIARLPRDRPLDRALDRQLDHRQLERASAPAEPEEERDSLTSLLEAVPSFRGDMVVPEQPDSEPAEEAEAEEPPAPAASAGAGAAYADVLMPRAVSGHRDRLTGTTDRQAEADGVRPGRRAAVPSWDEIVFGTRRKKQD

[2] = tested on: T1, SepH (Streptomyces venezuelae NRRL B-65442), ORF:b45d4985; test: EMSA; settings: 50 mM HEPES/KOH pH 7.2, 50 mM KCl, 5 mM MgCl2, room temperature, 30 min (EMSA 50 ng probe in 20 uL, 0.5x TBE gel; footprinting 40 uL)
[3] = target: FtsZ (S. venezuelae), purified, untagged (Streptomyces venezuelae); test: co-sedimentation; high speed (350,000 x g, 15 min); 3.5 µM FtsZ, with or without 0.6 µM SepH, 1 mM GMPCCP, buffer P, 30°C
[4] = target: FtsZ (S. venezuelae), purified, untagged (Streptomyces venezuelae); test: co-sedimentation; high speed (350,000 x g, 15 min); 3.5 µM FtsZ, 0.6 µM SepH or SepH-G79P, with or without 2 mM GTP, buffer P, 30°C; SDS-PAGE, Coomassie, bands quantified
[5] = target: SepH (S. venezuelae), purified, untagged (Streptomyces venezuelae); test: SEC; 30 µM protein, Superose 12 10/300 GL, buffer P (50 mM HEPES pH 7.2, 50 mM KCl, 5 mM MgCl2); size predicted from MW standards
[6] = target: FtsZ (S. venezuelae), purified, untagged (Streptomyces venezuelae)
[7] = target: SepH-CTD (residues 187-344 of S. venezuelae SepH), purified, untagged (Streptomyces venezuelae); test: SEC; 30 µM protein, Superose 12 10/300 GL, buffer P (50 mM HEPES pH 7.2, 50 mM KCl, 5 mM MgCl2); size predicted from MW standards
[8] = target: SepH-G79P (S. venezuelae), purified, untagged (Streptomyces venezuelae); test: as above
[9] = target: SepH-NTD (residues 1-186 of S. venezuelae SepH), purified, untagged (Streptomyces venezuelae); test: as above
[10] = target: the molecule itself; test: SEC; SepHMs, Superose 12 10/300 GL, modified buffer P (50 mM HEPES pH 6.8, 100 mM KCl, 5 mM MgCl2); size predicted from MW standards

Molecule: CCTTCGATCGTCCCTGGTCGGAGCGGCCGGTCGATGATCGAATCGGCGGCTCGGGATGATCACTGCCCGAGTGGGATGCCACCATGCCGACCCATGCGGCGGCTCACTCGAACGGGTCGAACGCGCCGGGGTGCGCGCCCCTCAGGCGCCGTGGGCGCGCCTCTCAGCGGAGAGGACGTGTTCCCCGGGAACGACAAAGCCCCGGTTGGACGGGGGATTCCAACCGGGGCCGATCGCCGTGACGCGAAGGGC (double strand) [vnz_35870 promoter region probe]
binding [1]: no binding | binding [2]: no binding

Molecule: FtsZ (S. venezuelae), purified, untagged (natural protein)
percent of FtsZ in the pellet (with GMPCCP) [3]: 88% | percent of FtsZ in the pellet (with GTP and SepH) [4]: 47% | percent of FtsZ in the pellet (with GTP and SepH-G79P) [4]: 36% | percent of FtsZ in the pellet (with GTP) [4]: 35%

Molecule: GCGGTCGTCGCCGCGGGCGGAGCCGATGCCCATCAGGGCCGAACCGGCCTCGGACATGACCGACTTGACGTCGGCGAAGTCGAGGTTGATCAGGCCCGGGGTGGTGATGAGGTCGGTGATGCCCTGCACACCGCTCAGCAGCACCTGGTCGGCCGACTTGAAGGCGTCGAGCACGGAGACCTGGCGGTCCGAGATCGACAGGAGCCGGTCGTTGGGGATGACGATGAGGGTGTCGACCTCTTCGCGGAGCTCGGCGATGCC (double strand) [vnz_08520 (ftsZ) internal probe]
binding [2]: no binding

Molecule: GCTGCTCGTCCCCGCGCAGGCGGAACCCGACGACGTCGTCCTGTCCTGGGAGGGGGAGGACGTGCTCGCCGTACGGCTGCCGCAGCTGTCCGAATCCCTCGATCACATCCTGGCGGCGATGGAGCGGCGGCACGGGATGCCACTGGCCGAGCTGGACCGCAAGGCCAAGCAGGAGGCCGTCCGTCTGCTGGAGGCGCGCGGCGCCTTCGCCGTACGCCATGGAGTGGAGACGGTGGCGGGTGCACTCGGTGTCAGCCGC (double strand) [vnz_30075 promoter region probe]
binding [1]: no binding

Molecule: SepH (S. venezuelae), purified, untagged (natural protein)
stoichiometry N [5]: 4 | percent of SepH in the pellet (with FtsZ and GMPCCP) [3]: 98% | percent of SepH in the pellet (with FtsZ and GTP) [4]: 96% | critical concentration of FtsZ from the GTPase rate, with 0.6 µM SepH (1.43 µM without SepH) [6]: 1.11 µM

stoichiometry N [7]: 4
Molecule: SepH-CTD (residues 187-344 of S. venezuelae SepH), purified, untagged (domain or fragment)

stoichiometry N [8]: 4 | percent of SepH-G79P in the pellet (with FtsZ and GTP) [4]: 50%
Molecule: SepH-G79P (S. venezuelae), purified, untagged (natural protein)

stoichiometry N [9]: 2
Molecule: SepH-NTD (residues 1-186 of S. venezuelae SepH), purified, untagged (domain or fragment)

B1: SepHMs-6xHis (SepH from M. smegmatis), purified (natural protein, Mycobacterium smegmatis mc2 155, UniProt A0R430 1-276, looked up)
chain: MRELRVVGLDVDGKRIICETADSAEMFTLRVDDRLRAALRGDKVASNQTEIDLEVQSVLRPKEIQAKIRAGASVEQLAAAAGVPVERVERFAHPVLLERARAAELATAAHPVLADGPSVLTLLETVTKALVARGLDPDAVAWDAWRNEDSRWTVQLAWKAGRSDNVAHFRFTPGSHGGLVTASDDAAHQLINPDFARPLRPVAAVPQLEFEAPQPAQPAAPPQPAQAVPTPEPAPAPEQEPEPAPAPAPKRSRKARATVPAWEDVLLGVRSSGTQR
notes: SepH homolog of Mycobacterium smegmatis mc2 155, MSMEG_5685, in pET21b (pSS561); Tetramer predicted from size exclusion chromatography; also called SepHMs-His6; SepH-6xHis; source: E. coli Rossetta (DE3), purified (HisTrap); not shown: His6, C-terminal, kept
stoichiometry N [10]: 4
